Measurements published in article PMC4633990.

Assays:
[1] = biological target: HIV-1 Env of strain ZM53.12 (clade C) on pseudovirus ZM53.12.SG3 (HIV-1 ZM53.12 (clade C))
[2] = biological target: HIV-1 Env of strain AC10.29 (clade B) on pseudovirus AC10.29.SG3 (HIV-1 AC10.29 (clade B))
[3] = biological target: HIV-1 Env on HIV-1 IIIb-infected CEM-NKr-CCR5 cells (CEM-IIIb) (HIV-1 IIIb) (UniProt P04578)

Substance: VRC07-αCD3 bispecific immunomodulatory protein (bispecific antibody)
- IC50 of neutralisation of Env-pseudotyped virus ZM53.12.SG3 (clade C), TZM-bl target cells, luciferase [1]: 0.24 µg/mL
- IC50 of neutralisation of Env-pseudotyped virus AC10.29.SG3 (clade B), TZM-bl target cells, luciferase [2]: 0.346 µg/mL
- IFN-γ intracellular cytokine staining of human CD4 T cells co-cultured with HIV-infected CEM cells and 0.5 μg ml^−1 protein, relative to unstimulated CD4 T cells (1.4-fold in the absence of HIV-1) [3]: 9 fold
